According to US20180291082A1 (IMMATICS BIOTECHNOLOGIES, published 2018):

target: T1, human recombinant HLA-B*08:01 (human); test: pMHC dissociation at 37 C (b2m on heavy chain); mean half-life grade (+ >2 h, ++ >4 h, +++ >6 h, ++++ >10 h)
T1 construct: Expressed in E. coli and purified; Assay done by ImmunAware
Method: The peptide-MHC stability for HLA-B*08:01 peptides was performed by ImmunAware (Copenhagen, Denmark). The data were obtained using a proximity based, homogenous, real-time assay to measure the dissociation of peptides from HLA class I molecules. First human recombinant HLA-B*08:01 and b2m were expressed in E. coli and purified in a series of liquid chromatography based steps (Ferre et al., 2003; Ostergaard et al., 2001). Afterwards, the stability of a peptide-MHC complex (pMHC) can be determined by measuring the amount of b2m associated with the MHC heavy chain over time at 37° C. (Harndahl et al., 2012). The stability of each pMHC, expressed as the half life of b2m associated with the respective heavy chain, was calculated by fitting the data to a one-phase dissociation equation.

Binder	mean half-life (T1/2) of peptide-MHC complex
FQKLKLLSL	2 to 4 h
LLKAEPLAF	4 to 6 h
EPVKKSRL	6 to 10 h
HAKEKLTAL	6 to 10 h
DLKYNALDL	6 to 10 h
HIFLRTTL	4 to 6 h
LSYNKYLQL	4 to 6 h
LPFLRENDL	4 to 6 h
YVKERSKAM	6 to 10 h

The next lines start with the values.

mean half-life (T1/2) of peptide-MHC complex	Binder
4 to 6 h	EAKRHLLQV
4 to 6 h	YKKLRTSSF
2 to 4 h	LPMLKVLNL
4 to 6 h	NPNLKTLL
4 to 6 h	AAMSRYEL
